Assay results taken from paper PMC5797133.

Assays:
[1] = target: short-chain dehydrogenase/reductase from Serratia marcescens BCRC 10948 (Serratia marcescens BCRC 10948); test: crystal structure; apo form, 1.47 Å, space group P4(1)2(1)2; sitting drop, 20 °C, 50 mM HEPES pH 7.0, 40% tacsimate pH 7.0, 2 mM spermine, 2 mM hexamine cobalt (III) chloride; homodimer AB in the asymmetric unit, tetramer by two-fold crystallographic symmetry
[2] = target: short-chain dehydrogenase/reductase from Serratia marcescens BCRC 10948 (Serratia marcescens BCRC 10948); test: SEC; size-exclusion chromatography of the purified SmSDR; single peak; conditions not given

short-chain dehydrogenase/reductase from Serratia marcescens BCRC 10948 (enzyme)
stoichiometry N [1]: 4
stoichiometry N [2]: 4
